Data: patent publication US20260166185A1 (Y MABS THERAPEUTICS, published 2026)
Values belong to the binder of their own block, whether it stands above or below them.

Tests used:
Bio-huHER2/Erb2 = Bio-huHER2/Erb2 (human (hu), UniProt P04626 23-652, biotinylated (bio-), site not stated); test: SPR (Biacore 8K+), immobilized antigen, 25.0-1.6 nM
bio-huCD38 [1] = biological target: T1, bio-huCD38 (human (hu), UniProt P28907 43-300, biotinylated (bio-), site not stated); test: as above
CD38 on Daudi cells = biological target: T2, CD38 on Daudi cells (UniProt P28907 1-300, limits assumed); test: titration binding FACS on Daudi cells
T2 construct: whole, on cells
Method: Subsequently the EC50 of antibodies samples was determined by titration binding FACS on Daudi cells (for CD38 binding evaluation), on THP-1 cells (for CD33 binding evaluation), on A-431 cells (for EGFR binding evaluation), on MKN-45 cells (for CEACAMS binding evaluation) and on HEK293T (for CD276 binding evaluation). Jurkat E6-1 or HEK293T cell lines were used as negative control, as applicable.

bio-huCD38 [2] = biological target: T1, bio-huCD38; test: SPR, antibody captured on chip, antigen as analyte 200-6.25 nM
Method: (§1) SPR analysis was performed on a Biocore 8K+, using a CFJB0944 CM5 sensor chip for immobilization and a SPR running buffer 1×HBS-EP+pH 7.4 (Cytiva, cat no. BR100669) according to the manufacturer's instructions.
In the first part of this example the antibody was immobilized on the chip and the antigen dissolved in the SPR running buffer flowed over the chip.

bio-huCD38 [3] = biological target: T1, bio-huCD38; test: SPR, antigen immobilized, antibody as analyte 25-1.6 nM
Method: as §1
(§2) In the second part of this example, antigen was immobilized on the chip and antibody dissolved in the SPR running buffer flowed over the chip.

bio-huCD38 [4] = biological target: T1, bio-huCD38; test: SPR, antigen immobilized, antibody as analyte 100-6.25 nM
Method: as §1, §2

bio-huCD38 [5] = biological target: T1, bio-huCD38; test: SPR (Biacore 8K+), immobilized antigen
bio-huCD38 [6] = biological target: T1, bio-huCD38; test: SPR, antigen immobilized, antibody as analyte 50-3.1 nM
Method: as §1, §2

B1: HER2-DOTA(Fab)-p53 (bispecific antibody)
light: QVQLQESGGGSVQAGGSLKLTCAASGYIFNSCGMGWYRQSPGRERELVSRISGDGDTWHKESVKGRFTISQDNVKKTLYLQMNSLKPEDTAVYFCAVCYNLETYWGQGTQVTVSSGGGSGGGSGGGSGGGGSQAVVTQESALTTSPGETVTLTCRSSTGAVTTSNYANWVQEKPDHLFTGLIGGNNNRPPGVPARFSGSLIGDKAALTIAGTQTEDEAIYFCALWYSNHWVFGGGTRLTVLGQPKSSPSVTLFPPSSEELETNKATLVCTITDFYPGVVTVDWKVDGTPVTQGMETTQPSKQSNNKYMASSYLTLTARAWERHSSYSCQVTHEGHTVEKSLSPAECS
heavy: HVKLQESGPGLVQPSQSLSLTCTVSGFSLTDYGVHWVRQSPGKGLEWLGVIWSGGGTAYNTALISRLNIYRDNSKNQVFLEMNSLQAEDTAMYYCARRGSYPYNYFDAWGRGTTVTVSSASTKGPSVFPLAPSSKSTSGGTAALGCLVKDYFPEPVTVSWNSGALTSGVHTFPAVLQSSGLYSLSSVVTVPSSSLGTQTYICNVNHKPSNTKVDKKVEPKSCGGGGSGGGGSKPLDGEYFTLQIRGRERFEMFRELNEALELKDAQAGKEPGGSGGAPHHHHHH
notes: Tetramerizes through p53 depending on concentration; also called YM00018; molecule 2
Kd (Bio-huHER2/Erb2): 58.8 pM | koff (Bio-huHER2/Erb2): 2.25e-05 s⁻¹ | kon (Bio-huHER2/Erb2): 383000 M⁻¹ s⁻¹

B2: CD38-DOTA(Fab)-p53 (bispecific antibody)
light: DVQLQESGGGLVQAGGSLRLSCTGSGRTFRNYPMAWFRQAPGKEREFVAGITWVGASTLYADFAKGRFTISRDNAKNTVYLQMNSLKPEDTAVYSCAAGRGIVAGRIPAEYADWGQGTQVTVSSGGGGSGGGGSGGGGSGGGGGSQAVVIQESALTTPPGETVTLTCGSSTGAVTASNYANWVQEKPDHLFTGLIGGHNNRPPGVPARFSGSLIGDKAALTIAGTQTEDEAIYFCALWYSDHWVIGGGTRLTVLGQPKANPTVTLFPPSSEELQANKATLVCLISDFYPGAVTVAWKADGSPVKAGVETTKPSKQSNNKYAASSYLSLTPEQWKSHRSYSCQVTHEGSTVEKTVAPTECS
heavy: B1 heavy
notes: VHH-Fab fusion of two polypeptide chains; Tetramerizes through p53 depending on concentration; also called YM00016; molecule 1
Kd (bio-huCD38 [1]): 25.7 pM | koff (bio-huCD38 [1]): 1.41e-05 s⁻¹ | kon (bio-huCD38 [1]): 550000 M⁻¹ s⁻¹ | EC50 (CD38 on Daudi cells): 650 pM

B4: CD38-DOTAM(fab)-dp53 (bispecific antibody)
light: DVQLQESGGGLVQAGGSLRLSCTGSGRTFRNYPMAWFRQAPGKEREFVAGITWVGASTLYADFAKGRFTISRDNAKNTVYLQMNSLKPEDTAVYSCAAGRGIVAGRIPAEYADWGQGTQVTVSSGGGGSGGGGSGGGGSGGGGGSDIQMTQSPSSLSASVGDRVTITCQSSHSVYSDNDLAWYQQKPGKAPKLLIYQASKLASGVPSRFSGSGSGTDFTLTISSLQPEDFATYYCLGGYDDESDTYGFGGGTKVEIKRTVAAPSVFIFPPSDEQLKSGTASVVCLLNNFYPREAKVQWKVDNALQSGNSQESVTEQDSKDSTYSLSSTLTLSKADYEKHKVYACEVTHQGLSSPVTKSFNRGEC
heavy: VTLKESGPVLVKPTETLTLTCTVSGFSLSTYSMSWIRQPPGKALEWLGFIGSRGDTYYASWAKGRLTISKDTSKSQVVLTMTNMDPVDTATYYCARERDPYGGGAYPPHLWGRGTLVTVSSASTKGPSVFPLAPSSKSTSGGTAALGCLVKDYFPEPVTVSWNSGALTSGVHTFPAVLQSSGLYSLSSVVTVPSSSLGTQTYICNVNHKPSNTKVDKKVEPKSCG
notes: No tetramerization domain; also called YM00007; molecule 6
Kd (bio-huCD38 [2]): 12700 pM | koff (bio-huCD38 [2]): 0.000214 s⁻¹ | kon (bio-huCD38 [2]): 16800 M⁻¹ s⁻¹ | EC50 (CD38 on Daudi cells): 510 pM | Kd (bio-huCD38 [3]): 132 pM | koff (bio-huCD38 [3]): 0.000189 s⁻¹ | kon (bio-huCD38 [3]): 1.43e+06 M⁻¹ s⁻¹

B6: CD38-DOTA(fab)-dp53 (bispecific antibody)
light: B2 light
heavy: HVKLQESGPGLVQPSQSLSLTCTVSGFSLTDYGVHWVRQSPGKGLEWLGVIWSGGGTAYNTALISRLNIYRDNSKNQVFLEMNSLQAEDTAMYYCARRGSYPYNYFDAWGRGTTVTVSSASTKGPSVFPLAPSSKSTSGGTAALGCLVKDYFPEPVTVSWNSGALTSGVHTFPAVLQSSGLYSLSSVVTVPSSSLGTQTYICNVNHKPSNTKVDKKVEPKSCGGHHHHHH
notes: No tetramerization domain; also called YM00017; molecule 15
Kd (bio-huCD38 [5]): 316 pM | koff (bio-huCD38 [5]): 0.000148 s⁻¹ | kon (bio-huCD38 [5]): 470000 M⁻¹ s⁻¹ | EC50 (CD38 on Daudi cells): 1070 pM

B7: CD38-DOTA(fab)-p53_C-Term-HC (bispecific antibody)
light: QAVVIQESALTTPPGETVTLTCGSSTGAVTASNYANWVQEKPDHLFTGLIGGHNNRPPGVPARFSGSLIGDKAALTIAGTQTEDEAIYFCALWYSDHWVIGGGTRLTVLGQPKANPTVTLFPPSSEELQANKATLVCLISDFYPGAVTVAWKADGSPVKAGVETTKPSKQSNNKYAASSYLSLTPEQWKSHRSYSCQVTHEGSTVEKTVAPTECS
heavy: HVKLQESGPGLVQPSQSLSLTCTVSGFSLTDYGVHWVRQSPGKGLEWLGVIWSGGGTAYNTALISRLNIYRDNSKNQVFLEMNSLQAEDTAMYYCARRGSYPYNYFDAWGRGTTVTVSSASTKGPSVFPLAPSSKSTSGGTAALGCLVKDYFPEPVTVSWNSGALTSGVHTFPAVLQSSGLYSLSSVVTVPSSSLGTQTYICNVNHKPSNTKVDKKVEPKSCGGGGSGGGGSGGGGSGGGGGSDVQLQESGGGLVQAGGSLRLSCTGSGRTFRNYPMAWFRQAPGKEREFVAGITWVGASTLYADFAKGRFTISRDNAKNTVYLQMNSLKPEDTAVYSCAAGRGIVAGRIPAEYADWGQGTQVTVSSGGGGSGGGGSKPLDGEYFTLQIRGRERFEMFRELNEALELKDAQAGKEPGGS
notes: VHH C-terminal of the Fab heavy chain, before p53; also called YM00014; molecule 13
Kd (bio-huCD38 [2]): 1330 pM | koff (bio-huCD38 [2]): 7.59e-05 s⁻¹ | kon (bio-huCD38 [2]): 57000 M⁻¹ s⁻¹ | Kd (bio-huCD38 [6]): 163 pM | koff (bio-huCD38 [6]): 1.52e-05 s⁻¹ | kon (bio-huCD38 [6]): 93300 M⁻¹ s⁻¹ | EC50 (CD38 on Daudi cells): 2360 pM

Results, then the binder that gave them:

Kd (bio-huCD38 [2]): 2090 pM | koff (bio-huCD38 [2]): 7.86e-05 s⁻¹ | kon (bio-huCD38 [2]): 37600 M⁻¹ s⁻¹ | EC50 (CD38 on Daudi cells): 590 pM | Kd (bio-huCD38 [3]): 936 pM | koff (bio-huCD38 [3]): 1.63e-05 s⁻¹ | kon (bio-huCD38 [3]): 17400 M⁻¹ s⁻¹
B3: CD38-DOTAM(Fab)-p53 (bispecific antibody)
light: B4 light
heavy: VTLKESGPVLVKPTETLTLTCTVSGFSLSTYSMSWIRQPPGKALEWLGFIGSRGDTYYASWAKGRLTISKDTSKSQVVLTMTNMDPVDTATYYCARERDPYGGGAYPPHLWGRGTLVTVSSASTKGPSVFPLAPSSKSTSGGTAALGCLVKDYFPEPVTVSWNSGALTSGVHTFPAVLQSSGLYSLSSVVTVPSSSLGTQTYICNVNHKPSNTKVDKKVEPKSCGGGGSGGGGSKPLDGEYFTLQIRGRERFEMFRELNEALELKDAQAGKEPGGS
notes: Tetramerizes through p53 depending on concentration; also called YM00006; molecule 5

Kd (bio-huCD38 [2]): 1280 pM | koff (bio-huCD38 [2]): 0.000103 s⁻¹ | kon (bio-huCD38 [2]): 80700 M⁻¹ s⁻¹ | EC50 (CD38 on Daudi cells): 3750 pM | Kd (bio-huCD38 [4]): 313 pM | koff (bio-huCD38 [4]): 1.3e-05 s⁻¹ | kon (bio-huCD38 [4]): 41500 M⁻¹ s⁻¹
B5: CD38-DOTA(fab)-p53_C-Term-LC (bispecific antibody)
light: QAVVIQESALTTPPGETVTLTCGSSTGAVTASNYANWVQEKPDHLFTGLIGGHNNRPPGVPARFSGSLIGDKAALTIAGTQTEDEAIYFCALWYSDHWVIGGGTRLTVLGQPKANPTVTLFPPSSEELQANKATLVCLISDFYPGAVTVAWKADGSPVKAGVETTKPSKQSNNKYAASSYLSLTPEQWKSHRSYSCQVTHEGSTVEKTVAPTECSGGGGSGGGGSGGGGSGGGGGSDVQLQESGGGLVQAGGSLRLSCTGSGRTFRNYPMAWFRQAPGKEREFVAGITWVGASTLYADFAKGRFTISRDNAKNTVYLQMNSLKPEDTAVYSCAAGRGIVAGRIPAEYADWGQGTQVTVSS
heavy: HVKLQESGPGLVQPSQSLSLTCTVSGFSLTDYGVHWVRQSPGKGLEWLGVIWSGGGTAYNTALISRLNIYRDNSKNQVFLEMNSLQAEDTAMYYCARRGSYPYNYFDAWGRGTTVTVSSASTKGPSVFPLAPSSKSTSGGTAALGCLVKDYFPEPVTVSWNSGALTSGVHTFPAVLQSSGLYSLSSVVTVPSSSLGTQTYICNVNHKPSNTKVDKKVEPKSCGGGGSGGGGSKPLDGEYFTLQIRGRERFEMFRELNEALELKDAQAGKEPGGS
notes: VHH at the C-terminus of the light chain; also called YM00013; molecule 12
